Reference: the supplement of paper PMC10266784

B1: library; numbered along this chain (parent)
chain: MAAAAAAAAEQQSSNGPVKKSMREKAVERRSVNKEHNSNFKAGYIPIDEDRLHKTGLRGRKGNLAICVIILLFILAVINLIITLVIWAVIRIGPNGCDSMEFHESGLLRFKQVSDMGVIHPLYKSTVGGRRNENLVITGNNQPIVFQQGTTKLSVENNKTSITSDIGMQFFDPRTQNILFSTDYETHEFHLPSGVKSLNVQKASTERITSNATSDLNIKVDGRAIVRGNEGVFIMGKTIEFHMGGNMELKAENSIILNGSVMVSTTRLPSSSSGDQLGSGDWVRYKLCMCADGTLFKVQVTSQNMGCQISDNPCGNTH

Variants of: B1
Experiment: SGCB cell-surface expression functional score (HA stain, bin4 vs bin1, normalised to synonymous) (log10 ratio); higher = more cell-surface SGCB (functional)
Summary of the method: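 Sorting and sequencing yield the functional score, defined as the log ratio of a variant's highest-bin frequency to its lowest-bin frequency, with the median taken over codons and replicate transductions. The libraries, codon-saturation sets of HA-tagged, YFP-fused human beta-sarcoglycan, went into HEK293 cells stably carrying alpha-, gamma- and delta-sarcoglycan by duplicate lentiviral transduction at MOI <0.1. Cells were stained on ice with Alexa Fluor 647 anti-HA, fixed and split into four 5% intensity bins, and synonymous variants were scaled per section to mean 0, SD 0.5.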

Row | Variant | SGCB cell-surface expression functional score (log10)
1 | MAAAAAAAAEQQSSNGPVKKSMREKAVERRSVNKEHNSNFKAGYIPIDEDRLHKTGLRGRKGNLAICVIILLFILAVINLIITLVIWAVIRIGPNGCDSMEFHESGLLRFKQVSDMGVIHPLYKSTVGGRRNENLVITGNNQPIVFQQGTTKLSVENNKTSITSDIGMQFFDPRTQNILFSTDYETHEFHLPSGVKSLNVQKASTERITSNATMDLNIKVDGRAIVRGNEGVFIMGKTIEFHMGGNMELKAENSIILNGSVMVSTTRLPSSSSGDQLGSGDWVRYKLCMCADGTLFKVQVTSQNMGCQISDNPCGNTH [S214M] | -0.57
2 | MAAAAAAAAEQQSSNGPVKKSMREKAVERRSVNKEHNSNFKAGYIPIDEDRLHKTGLRGRKGNLAICVIILLFILAVINLIITLVIWAVIRIGPNGCDSMEFHESGLLRFKQVSDMGVIHPLYKSTVGGRRNENLVITGNNQPIVFQQGTTKLSVENNKTSITSDIGMQFFDPRTQNILFSTDYETHEFHLPSGVKSLNVQKASTERITSNATQDLNIKVDGRAIVRGNEGVFIMGKTIEFHMGGNMELKAENSIILNGSVMVSTTRLPSSSSGDQLGSGDWVRYKLCMCADGTLFKVQVTSQNMGCQISDNPCGNTH [S214Q] | -0.1
3 | MAAAAAAAAEQQSSNGPVKKSMREKAVERRSVNKEHNSNFKAGYIPIDEDRLHKTGLRGRKGNLAICVIILLFILAVINLIITLVIWAVIRIGPNGCDSMEFHESGLLRFKQVSDMGVIHPLYKSTVGGRRNENLVITGNNQPIVFQQGTTKLSVENNKTSITSDIGMQFFDPRTQNILFSTDYETHEFHLPSGVKSLNVQKASTERITSNATPDLNIKVDGRAIVRGNEGVFIMGKTIEFHMGGNMELKAENSIILNGSVMVSTTRLPSSSSGDQLGSGDWVRYKLCMCADGTLFKVQVTSQNMGCQISDNPCGNTH [S214P] | -1.11
4 | MAAAAAAAAEQQSSNGPVKKSMREKAVERRSVNKEHNSNFKAGYIPIDEDRLHKTGLRGRKGNLAICVIILLFILAVINLIITLVIWAVIRIGPNGCDSMEFHESGLLRFKQVSDMGVIHPLYKSTVGGRRNENLVITGNNQPIVFQQGTTKLSVENNKTSITSDIGMQFFDPRTQNILFSTDYETHEFHLPSGVKSLNVQKASTERITSNATIDLNIKVDGRAIVRGNEGVFIMGKTIEFHMGGNMELKAENSIILNGSVMVSTTRLPSSSSGDQLGSGDWVRYKLCMCADGTLFKVQVTSQNMGCQISDNPCGNTH [S214I] | -0.69
5 | MAAAAAAAAEQQSSNGPVKKSMREKAVERRSVNKEHNSNFKAGYIPIDEDRLHKTGLRGRKGNLAICVIILLFILAVINLIITLVIWAVIRIGPNGCDSMEFHESGLLRFKQVSDMGVIHPLYKSTVGGRRNENLVITGNNQPIVFQQGTTKLSVENNKTSITSDIGMQFFDPRTQNILFSTDYETHEFHLPSGVKSLNVQKASTERITSNATNDLNIKVDGRAIVRGNEGVFIMGKTIEFHMGGNMELKAENSIILNGSVMVSTTRLPSSSSGDQLGSGDWVRYKLCMCADGTLFKVQVTSQNMGCQISDNPCGNTH [S214N] | -0.1
6 | MAAAAAAAAEQQSSNGPVKKSMREKAVERRSVNKEHNSNFKAGYIPIDEDRLHKTGLRGRKGNLAICVIILLFILAVINLIITLVIWAVIRIGPNGCDSMEFHESGLLRFKQVSDMGVIHPLYKSTVGGRRNENLVITGNNQPIVFQQGTTKLSVENNKTSITSDIGMQFFDPRTQNILFSTDYETHEFHLPSGVKSLNVQKASTERITSNATWDLNIKVDGRAIVRGNEGVFIMGKTIEFHMGGNMELKAENSIILNGSVMVSTTRLPSSSSGDQLGSGDWVRYKLCMCADGTLFKVQVTSQNMGCQISDNPCGNTH [S214W] | -1.07
7 | MAAAAAAAAEQQSSNGPVKKSMREKAVERRSVNKEHNSNFKAGYIPIDEDRLHKTGLRGRKGNLAICVIILLFILAVINLIITLVIWAVIRIGPNGCDSMEFHESGLLRFKQVSDMGVIHPLYKSTVGGRRNENLVITGNNQPIVFQQGTTKLSVENNKTSITSDIGMQFFDPRTQNILFSTDYETHEFHLPSGVKSLNVQKASTERITSNATFDLNIKVDGRAIVRGNEGVFIMGKTIEFHMGGNMELKAENSIILNGSVMVSTTRLPSSSSGDQLGSGDWVRYKLCMCADGTLFKVQVTSQNMGCQISDNPCGNTH [S214F] | -1.55
8 | MAAAAAAAAEQQSSNGPVKKSMREKAVERRSVNKEHNSNFKAGYIPIDEDRLHKTGLRGRKGNLAICVIILLFILAVINLIITLVIWAVIRIGPNGCDSMEFHESGLLRFKQVSDMGVIHPLYKSTVGGRRNENLVITGNNQPIVFQQGTTKLSVENNKTSITSDIGMQFFDPRTQNILFSTDYETHEFHLPSGVKSLNVQKASTERITSNATVDLNIKVDGRAIVRGNEGVFIMGKTIEFHMGGNMELKAENSIILNGSVMVSTTRLPSSSSGDQLGSGDWVRYKLCMCADGTLFKVQVTSQNMGCQISDNPCGNTH [S214V] | -0.18
9 | MAAAAAAAAEQQSSNGPVKKSMREKAVERRSVNKEHNSNFKAGYIPIDEDRLHKTGLRGRKGNLAICVIILLFILAVINLIITLVIWAVIRIGPNGCDSMEFHESGLLRFKQVSDMGVIHPLYKSTVGGRRNENLVITGNNQPIVFQQGTTKLSVENNKTSITSDIGMQFFDPRTQNILFSTDYETHEFHLPSGVKSLNVQKASTERITSNATCDLNIKVDGRAIVRGNEGVFIMGKTIEFHMGGNMELKAENSIILNGSVMVSTTRLPSSSSGDQLGSGDWVRYKLCMCADGTLFKVQVTSQNMGCQISDNPCGNTH [S214C] | -0.08
10 | MAAAAAAAAEQQSSNGPVKKSMREKAVERRSVNKEHNSNFKAGYIPIDEDRLHKTGLRGRKGNLAICVIILLFILAVINLIITLVIWAVIRIGPNGCDSMEFHESGLLRFKQVSDMGVIHPLYKSTVGGRRNENLVITGNNQPIVFQQGTTKLSVENNKTSITSDIGMQFFDPRTQNILFSTDYETHEFHLPSGVKSLNVQKASTERITSNATHDLNIKVDGRAIVRGNEGVFIMGKTIEFHMGGNMELKAENSIILNGSVMVSTTRLPSSSSGDQLGSGDWVRYKLCMCADGTLFKVQVTSQNMGCQISDNPCGNTH [S214H] | -0.9
11 | MAAAAAAAAEQQSSNGPVKKSMREKAVERRSVNKEHNSNFKAGYIPIDEDRLHKTGLRGRKGNLAICVIILLFILAVINLIITLVIWAVIRIGPNGCDSMEFHESGLLRFKQVSDMGVIHPLYKSTVGGRRNENLVITGNNQPIVFQQGTTKLSVENNKTSITSDIGMQFFDPRTQNILFSTDYETHEFHLPSGVKSLNVQKASTERITSNATGDLNIKVDGRAIVRGNEGVFIMGKTIEFHMGGNMELKAENSIILNGSVMVSTTRLPSSSSGDQLGSGDWVRYKLCMCADGTLFKVQVTSQNMGCQISDNPCGNTH [S214G] | -0.32
12 | MAAAAAAAAEQQSSNGPVKKSMREKAVERRSVNKEHNSNFKAGYIPIDEDRLHKTGLRGRKGNLAICVIILLFILAVINLIITLVIWAVIRIGPNGCDSMEFHESGLLRFKQVSDMGVIHPLYKSTVGGRRNENLVITGNNQPIVFQQGTTKLSVENNKTSITSDIGMQFFDPRTQNILFSTDYETHEFHLPSGVKSLNVQKASTERITSNATADLNIKVDGRAIVRGNEGVFIMGKTIEFHMGGNMELKAENSIILNGSVMVSTTRLPSSSSGDQLGSGDWVRYKLCMCADGTLFKVQVTSQNMGCQISDNPCGNTH [S214A] | 0.25
13 | MAAAAAAAAEQQSSNGPVKKSMREKAVERRSVNKEHNSNFKAGYIPIDEDRLHKTGLRGRKGNLAICVIILLFILAVINLIITLVIWAVIRIGPNGCDSMEFHESGLLRFKQVSDMGVIHPLYKSTVGGRRNENLVITGNNQPIVFQQGTTKLSVENNKTSITSDIGMQFFDPRTQNILFSTDYETHEFHLPSGVKSLNVQKASTERITSNATLDLNIKVDGRAIVRGNEGVFIMGKTIEFHMGGNMELKAENSIILNGSVMVSTTRLPSSSSGDQLGSGDWVRYKLCMCADGTLFKVQVTSQNMGCQISDNPCGNTH [S214L] | -1.06
14 | MAAAAAAAAEQQSSNGPVKKSMREKAVERRSVNKEHNSNFKAGYIPIDEDRLHKTGLRGRKGNLAICVIILLFILAVINLIITLVIWAVIRIGPNGCDSMEFHESGLLRFKQVSDMGVIHPLYKSTVGGRRNENLVITGNNQPIVFQQGTTKLSVENNKTSITSDIGMQFFDPRTQNILFSTDYETHEFHLPSGVKSLNVQKASTERITSNATKDLNIKVDGRAIVRGNEGVFIMGKTIEFHMGGNMELKAENSIILNGSVMVSTTRLPSSSSGDQLGSGDWVRYKLCMCADGTLFKVQVTSQNMGCQISDNPCGNTH [S214K] | -0.46
15 | MAAAAAAAAEQQSSNGPVKKSMREKAVERRSVNKEHNSNFKAGYIPIDEDRLHKTGLRGRKGNLAICVIILLFILAVINLIITLVIWAVIRIGPNGCDSMEFHESGLLRFKQVSDMGVIHPLYKSTVGGRRNENLVITGNNQPIVFQQGTTKLSVENNKTSITSDIGMQFFDPRTQNILFSTDYETHEFHLPSGVKSLNVQKASTERITSNATRDLNIKVDGRAIVRGNEGVFIMGKTIEFHMGGNMELKAENSIILNGSVMVSTTRLPSSSSGDQLGSGDWVRYKLCMCADGTLFKVQVTSQNMGCQISDNPCGNTH [S214R] | -0.31
16 | MAAAAAAAAEQQSSNGPVKKSMREKAVERRSVNKEHNSNFKAGYIPIDEDRLHKTGLRGRKGNLAICVIILLFILAVINLIITLVIWAVIRIGPNGCDSMEFHESGLLRFKQVSDMGVIHPLYKSTVGGRRNENLVITGNNQPIVFQQGTTKLSVENNKTSITSDIGMQFFDPRTQNILFSTDYETHEFHLPSGVKSLNVQKASTERITSNATTDLNIKVDGRAIVRGNEGVFIMGKTIEFHMGGNMELKAENSIILNGSVMVSTTRLPSSSSGDQLGSGDWVRYKLCMCADGTLFKVQVTSQNMGCQISDNPCGNTH [S214T] | -0.12
17 | MAAAAAAAAEQQSSNGPVKKSMREKAVERRSVNKEHNSNFKAGYIPIDEDRLHKTGLRGRKGNLAICVIILLFILAVINLIITLVIWAVIRIGPNGCDSMEFHESGLLRFKQVSDMGVIHPLYKSTVGGRRNENLVITGNNQPIVFQQGTTKLSVENNKTSITSDIGMQFFDPRTQNILFSTDYETHEFHLPSGVKSLNVQKASTERITSNATYDLNIKVDGRAIVRGNEGVFIMGKTIEFHMGGNMELKAENSIILNGSVMVSTTRLPSSSSGDQLGSGDWVRYKLCMCADGTLFKVQVTSQNMGCQISDNPCGNTH [S214Y] | -1.74
18 | MAAAAAAAAEQQSSNGPVKKSMREKAVERRSVNKEHNSNFKAGYIPIDEDRLHKTGLRGRKGNLAICVIILLFILAVINLIITLVIWAVIRIGPNGCDSMEFHESGLLRFKQVSDMGVIHPLYKSTVGGRRNENLVITGNNQPIVFQQGTTKLSVENNKTSITSDIGMQFFDPRTQNILFSTDYETHEFHLPSGVKSLNVQKASTERITSNAYSDLNIKVDGRAIVRGNEGVFIMGKTIEFHMGGNMELKAENSIILNGSVMVSTTRLPSSSSGDQLGSGDWVRYKLCMCADGTLFKVQVTSQNMGCQISDNPCGNTH [T213Y] | -0.24
19 | MAAAAAAAAEQQSSNGPVKKSMREKAVERRSVNKEHNSNFKAGYIPIDEDRLHKTGLRGRKGNLAICVIILLFILAVINLIITLVIWAVIRIGPNGCDSMEFHESGLLRFKQVSDMGVIHPLYKSTVGGRRNENLVITGNNQPIVFQQGTTKLSVENNKTSITSDIGMQFFDPRTQNILFSTDYETHEFHLPSGVKSLNVQKASTERITSNAVSDLNIKVDGRAIVRGNEGVFIMGKTIEFHMGGNMELKAENSIILNGSVMVSTTRLPSSSSGDQLGSGDWVRYKLCMCADGTLFKVQVTSQNMGCQISDNPCGNTH [T213V] | -1.02
